Assay results published in patent US20240279318A1 (NANJING LEGEND BIOTECH, published 2024).
Positions count from the first letter of the chain named. Read-outs that look alike come from different tables or passages of the source.

B1: AS190259 scFv-mIgG2aFc (Fc fusion, not shown: a dimerising Fc or GST)
chain: QSVVTQPSAVSVSLEETATITCQGGGYYVNWYQQKPGQAPVLVIYLNTNRPSGIPERFSASKSGGTATLTINGAQAEDEAAYYCQSADSSGNSAVFGGGTHLTVLGGGGSGGGGSGGGGSQVQLVQSGGGLVQPGGSLRLSCAASGFTFSSYAMSWVRQAPGKGLEWVSAINSGGGSTYYADSVKGRFTISRDNAKNTLYLQLNSLKTEDTAMYYCAKAASGYGGSWWGDATLDAWGQGTLVTVSS
notes: Camel scFv; i647-labelled for flow cytometry
B2: AS190259 VL1VH1 scFv-mIgG2aFc (Fc fusion, not shown: a dimerising Fc or GST)
chain: SSELTQDPAVSVALGQTVRITCQGGGYYVNWYQQKPGQAPVLVIYLNTNRPSGIPDRFSGSSSGNTASLTITGAQAEDEADYYCQSADSSGNSAVFGGGTKLTVLGGGGSGGGGSGGGGSEVQLVESGGGLVQPGGSLRLSCAASGFTFSSYAMSWVRQAPGKGLEWVSAINSGGGSTYYADSVKGRFTISRDNSKNTLYLQMNSLRAEDTAVYYCAKAASGYGGSWWGDATLDAWGQGTLVTVSS
notes: Humanized
B3: AS190259 VL2VH1 scFv-mIgG2aFc (Fc fusion, not shown: a dimerising Fc or GST; small tags and cut ends)
scFv: B2 chain with R19T, D81A
B4: AS170036 VL1VH1-VLH98V (scFv)
scFv: QSALTQPRSVSGSPGQSVTISCAGTSSDVGSENYVSWYQQHPGKAPKLMIYQVNKRASGVPDRFSGSKSGNTASLTISGLQAEDEADYYCASYRSSDVNIVFGGGTKLTVLGGGGSGGGGSGGGGSEVQLVESGGGLVQPGGSLRLSCAASGFTFSSYAMSWVRQAPGKGLEWVSTINSGTGSPYYADSVKGRFTISRDNSKNTLYLQMNSLRAEDTAVYYCAKNFFDGSWFLGPPAMDYWGQGTLVTVSSHHHHHH
B5: AS170036 VL1VH1-VLE32W (scFv)
scFv: B4 scFv with E32W, V98H
B6: AS170036 VL1VH1-VHG56F (scFv)
scFv: B4 scFv with V98H, G182F
B7: AS170036 VL1VH1-VHS57R (scFv)
scFv: B4 scFv with V98H, S183R
B8: AS170036 VL1VH1-VLH98T (scFv)
scFv: B4 scFv with V98T
B9: AS170036 VL1VH1-VHG108E (scFv)
scFv: B4 scFv with V98H, G234E
B10: AS170036 VL1VH1-VLH98P (scFv)
scFv: B4 scFv with V98P
B11: AS170036 VL1VH1-VLH98A (scFv)
scFv: B4 scFv with V98A
B12: AS170036 VL1VH1-VHG108N (scFv)
scFv: B4 scFv with V98H, G234N
B13: AS170036 VL1VH1-VHS57Q (scFv)
scFv: B4 scFv with V98H, S183Q
B14: AS170036 VL1VH1-VHG108M (scFv)
scFv: B4 scFv with V98H, G234M

How the values were obtained:
[1] = molecular target: T1, AFP158/HLA-A*02:01 complex (human); assay: SPR, antibody captured via mIgG2a-Fc, complex as analyte
T1 construct: biotinylated on the BSP by BirA for ELISA and panning; also called biotinylated AFP158/HLA-A*02:01 complex; Bio-AFP158
Experimental: (§1) The binding affinity between selected antibodies and AFP158/HLA-A*02:01 complex was determined by surface plasmon resonance (SPR) on a BIAcore T200 instrument (GE Healthcare). The experiment was carried out as follows. The purified sdAb/scFv-mIgG2aFc protein were captured through mIgG2a-Fc onto the sensorchip. […] On-rate (kₐ) and off-rate (kd) were calculated based on association and dissociation curve, and were used to estimate the equilibrium dissociation constant (KD).

[2] = molecular target: T1, AFP158/HLA-A*02:01 complex; assay: SPR, scFv-mIgG2aFc from supernatant captured, complex as analyte
Experimental: as §1
Humanized heavy chains and light chains were combined, and used to produce a series of humanized antibodies. These antibodies were synthesized as scFv-mIgG2aFc and transiently produced using HEK293 cells. The antibodies in the supernatant were subjected to SPR affinity assessment.

[3] = molecular target: T1, AFP158/HLA-A*02:01 complex; assay: SPR; vs AS170036 VL1VH1
[4] = molecular target: OR6C1 peptide/HLA-A*02:01 complex (recombinant) (human); assay: SPR
[5] = molecular target: RCL1 peptide/HLA-A*02:01 complex (recombinant) (human, UniProt P16213 21-119 (Pongo pygmaeus entry)); assay: SPR
[6] = molecular target: PTP4A1 peptide/HLA-A*02:01 complex (recombinant) (human); assay: SPR
[7] = molecular target: RP1 peptide/HLA-A*02:01 complex (recombinant) (human, UniProt P16213 21-119 (Pongo pygmaeus entry)); assay: SPR
[8] = molecular target: BRCA2 peptide/HLA-A*02:01 complex (recombinant) (human); assay: SPR
[9] = molecular target: OR51B6 peptide/HLA-A*02:01 complex (recombinant) (human); assay: SPR
[10] = molecular target: OR1I1 peptide/HLA-A*02:01 complex (recombinant) (human); assay: SPR
[11] = molecular target: NR2E1 peptide/HLA-A*02:01 complex (recombinant) (human); assay: SPR
[12] = molecular target: ATG9A peptide/HLA-A*02:01 complex (recombinant) (human); assay: SPR
[13] = molecular target: CDC14A peptide/HLA-A*02:01 complex (recombinant) (human); assay: SPR
[14] = molecular target: ARNTL peptide/HLA-A*02:01 complex (recombinant) (human); assay: SPR
[15] = molecular target: ZNF566 peptide/HLA-A*02:01 complex (recombinant) (human); assay: SPR
[16] = molecular target: T1, AFP158/HLA-A*02:01 complex; assay: SPR; vs AS170036 VL1VH1; remark: listed apart in the source
[17] = molecular target: T1, AFP158/HLA-A*02:01 complex; assay: SPR, crude scFv captured;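 also: Peptide–MHC complex flowed at several concentrations over sensorchip-captured scFv, Kd derived from on- and off-rates obtained from the association and dissociation curves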

Binder	Affinity increase [3]	binding result [4]	binding result [5]	binding result [6]	binding result [7]	binding result [8]	binding result [9]	binding result [10]	binding result [11]	binding result [12]	binding result [13]	binding result [14]	binding result [15]	Affinity increase [16]	Kd [17]	also measured
B1																Kd [1]: 390 nM; koff [1]: 0.14 s⁻¹; kon [1]: 350000 M⁻¹ s⁻¹; Kd [2]: 220 nM; koff [2]: 0.25 s⁻¹; kon [2]: 1.1e+06 M⁻¹ s⁻¹
B2																Kd [2]: 200 nM; koff [2]: 0.39 s⁻¹; kon [2]: 2e+06 M⁻¹ s⁻¹
B3																Kd [2]: 220 nM; koff [2]: 0.3 s⁻¹; kon [2]: 1.4e+06 M⁻¹ s⁻¹
B4	> 2 fold	no binding	no binding	no binding	no binding	no binding	no binding	no binding	no binding	no binding	no binding	no binding	no binding			
B5	> 2 fold	no binding	no binding	no binding	no binding	no binding	no binding	no binding	no binding	no binding	no binding	no binding	no binding			
B6	> 2 fold	no binding	no binding	no binding	no binding	no binding	no binding	no binding	no binding	no binding	no binding	no binding	no binding	2.3 fold	98 nM	
B7	> 2 fold	no binding	no binding	no binding	no binding	no binding	no binding	no binding	no binding	no binding	no binding	no binding	no binding	2.8 fold	88 nM	
B8	> 2 fold	no binding	no binding	no binding	no binding	no binding	no binding	no binding	no binding	no binding	no binding	no binding	no binding			
B9	> 2 fold	no binding	no binding	no binding	no binding	no binding	no binding	no binding	no binding	no binding	no binding	no binding	no binding	4.1 fold	56 nM	
B10	> 2 fold	no binding	no binding	no binding	no binding	no binding	no binding	no binding	no binding	no binding	no binding	no binding	no binding			
B11	> 2 fold	no binding	no binding	no binding	no binding	no binding	no binding	no binding	no binding	no binding	no binding	no binding	no binding			
B12	> 2 fold	no binding	no binding	no binding	no binding	no binding	no binding	no binding	no binding	no binding	no binding	no binding	no binding	2 fold	140 nM	
B13	> 2 fold	no binding	no binding	no binding	no binding	no binding	no binding	no binding	no binding	no binding	no binding	no binding	no binding	2.4 fold	100 nM	
B14	> 2 fold	no binding	no binding	no binding	no binding	no binding	no binding	no binding	no binding	no binding	no binding	no binding	no binding	4.7 fold	58 nM	
